These results are taken from US20210253725A1 (BIONTECH, published 2021).

Assay [1] has as its target T1, CD27 expressed on the cell surface of HT1080_CD27 cells (human, UniProt P26842 20-260).
T1 sequence (looked up): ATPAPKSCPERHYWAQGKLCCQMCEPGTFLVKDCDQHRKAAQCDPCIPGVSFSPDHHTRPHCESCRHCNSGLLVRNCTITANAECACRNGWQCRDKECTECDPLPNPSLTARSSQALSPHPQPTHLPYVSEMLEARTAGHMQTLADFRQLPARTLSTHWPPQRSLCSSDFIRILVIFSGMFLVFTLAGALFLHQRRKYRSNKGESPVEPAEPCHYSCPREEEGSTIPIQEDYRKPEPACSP
Description: cell-based or functional assay.

Assay [2] deals with T1, CD27 expressed on the cell surface of …. Nature of the assay: HT1080_CD27 cells, imaging.
The target in assay [3] is T2, CD27 protein (His-tagged, Sino Biological Inc. 10039-H08B1) (human, UniProt P26842 20-192).
T2 construct: bought protein coated on ELISA plates; also called TNFRSF7; not shown: His tag
T2 sequence (looked up): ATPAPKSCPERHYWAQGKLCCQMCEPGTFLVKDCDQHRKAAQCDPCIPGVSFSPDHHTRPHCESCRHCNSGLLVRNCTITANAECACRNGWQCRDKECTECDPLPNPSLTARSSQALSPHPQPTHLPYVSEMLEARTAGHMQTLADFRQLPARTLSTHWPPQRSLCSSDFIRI
Description: ELISA, coated His-tagged CD27. Background: In an ELISA, binding on a coated surface is turned into a signal by an enzyme label.
Also: test concentration or dose not given here.

B1: P018.S.06.A.A05 (antibody, V domains shown)
VH: QSLEESGGRLVTPGTPLTLTCTVSGIDLSSYAMGWVRQAPGKGLELIGLIYASNRTHYATWAKGRFTISKSSTTVDLKATSLTTEDTATYFCGRYGRGSGGYYYGMDLWGPGTLVTVSS
VL: DVVMTQTPASVEAAVGGTVTIKCQASQSGDNYLSWYQQKSGQPPKLLIYLASTLASGVPSRFRGSRSGTEYTLTISDLESADAATYYCQNYCAGSGVCVGVAFGGGTEVVVK
notes: V regions on human Ig constant parts; also called AB27_97
With B1, in assay [1], the “Functional assay Cross-linked by F(ab′)2 fragment IL-8” value (“Functional assay Cross-linked” below) turned out to be 1.09 abs. corr and the “Functional assay IL-8” value is 0.433 abs. corr. In addition, in assay [2], the “Cellular binding assay [RFU]” value was 140 RFU. Moreover, the “ELISA [abs. corr.]” value in assay [3] came to 2.95 abs. corr.

B2: P018.S.09.A.F06 (antibody, V domains shown)
VH: QSVEESGGRLVTPGGSLTLTCSVSGIDLSSYAMNWVRQAPGKGLEWIGIISTGGSTYYANWAKGRFTISKTSTTVDLKITSPTTEDTATYICARDVGGTTVPYYFDLWGPGTLVTVSS
VL: AYDMTQTPASMEVAVGGTVTIKCQASESISSWLAWYQQKPGQPPKPLIYEASRLASGVPSRFKGSGSGTEFTLTISGVESADAATYYCQQGYGSSDVHNIFGGGTEVVVK
notes: V regions on human Ig constant parts; also called AB27_158
B2: in assay [1], the “Functional assay Cross-linked” value was found to be 2.03 abs. corr and the “Functional assay IL-8” value was determined as 0.58 abs. corr. For the same molecule, in assay [2], the “Cellular binding assay [RFU]” value amounted to 218 RFU. For the same molecule, the “ELISA [abs. corr.]” value in assay [3] came out at 2.98 abs. corr.

B3: P018.S.09.A.E02 (antibody, V domains shown)
VH: QSLEESGGRLVTPGTPLTLTCTASGFTISSHHMTWVRQAPGEGLEWLGVIFPSGHTYYTSWAKGRFTISRTSTTVDLKMASLTIEDTATYFCVRDVGYFTLWGQGTLVTVSS
VL: AQVLTQTPSPVSAAVGGTVTISCQSSESVGGNNWLAWYQQKLGQPPKLLIYGASTLASGVPSRFSGSGSGTQFTLTISEVQSDDAATYYCQGYYSDVTNAFGGGTEVVVE
notes: V regions on human Ig constant parts; also called AB27_153
In the case of B3, in assay [1], the “Functional assay Cross-linked” value was 1.61 abs. corr and the “Functional assay IL-8” value stood at 0.172 abs. corr. The “Cellular binding assay [RFU]” value in assay [2] turned out to be 305 RFU. The “ELISA [abs. corr.]” value in assay [3] turned out to be 2.98 abs. corr.

B4: P018.S.10.A.H05 (antibody, V domains shown)
VH: QSLEESGGRLVTPGTPLTLTCTASGFSLSTYYMSWVRQAPGKGLEWIGIIYTSGSTYYASWAKGRFTISRNSTTVDLKITSPTTEDTATYFCARSRVPGDTTGLYYFNLWGPGTLVTVSS
VL: ALVMTQTPASVSAAVEGTVTINCQASENIYSNLAWYQQKPGQPPKLLIYHTSNLASGVPSRFKGSGAGTEFTLTISDLESDDAATYYCQSAYDSSSSDTFTFGGGTEVVVK
notes: V regions on human Ig constant parts; also called AB27_186
With B4, in assay [1], the “Functional assay Cross-linked” value was found to be 1.11 abs. corr and the “Functional assay IL-8” value is -0.155 abs. corr. Also, the “Cellular binding assay [RFU]” value in assay [2] is 313 RFU. Besides, the “ELISA [abs. corr.]” value in assay [3] stood at 2.96 abs. corr.

B5: P018.S.06.A.H05 (antibody, V domains shown)
VH: QSLEESGGDLVQPEGSLTLTCKASGFDFSSTYWICWVRQAPGKGLEWIGCIDDSYAYTYYASWAKGRFTISKPSSTTVTLQVTSLTVADTATYFCARDGYPGYGVGSFNLWGPGTLVTVSS
VL: AIVMTQTPSSKSVPVGDTVTINCQASESVYSNNRLAWFQQKPGQPPKLLIYLASTLASGVPSRFKGSGSGTQFTLTISDVVSDDAATYYCAGYKSYSDDGTGFGGGTEVVVK
notes: V regions on human Ig constant parts; also called AB27_112
With B5, in assay [1], the “Functional assay Cross-linked” value worked out at 1.56 abs. corr and the “Functional assay IL-8” value was 0.278 abs. corr. Besides, the “Cellular binding assay [RFU]” value in assay [2] was determined as 308 RFU. In addition, the “ELISA [abs. corr.]” value in assay [3] was 2.98 abs. corr.

B6: P018.S.09.A.C02 (antibody, V domains shown)
VH: QSVEESGGRLVTPGTPLTLTCTVSGIDLSSYVMSWVRQAPGKGLEWIGYIDYGGTAYYASWAKGRFTISKTSTTVELKITSPTIEDTATYFCARGGYGGYTLVTALWGPGTLVTVSS
VL: DIVMTQTPASVSEPVGGTVTIKCQASQSISSYLSWYQQKPGQPPKLLIYSTSTLASGVSSRFKGSGSGTEYTLTISDLESADAATYYCQTYYGGGPFGNGFGGGTEVVVK
notes: V regions on human Ig constant parts; also called AB27_147
Turning to B6, in assay [1], the “Functional assay Cross-linked” value was 1.07 abs. corr and the “Functional assay IL-8” value was 0.07 abs. corr. For the same molecule, in assay [2], the “Cellular binding assay [RFU]” value was found to be 323 RFU. Also, the “ELISA [abs. corr.]” value in assay [3] stood at 2.94 abs. corr.
